Values of other authors as cited in PMC11769735.
Like-named read-outs stand apart in the source and are kept apart here. Values belong to the substance of their own block, whether it stands above or below them.

Experiments:
[1] = target: ADP-actin filament barbed end (UniProt P68133)
G-actin [2] = target: G-actin (UniProt P68133)
G-actin [3] = target: G-actin (UniProt P68133); remark: listed apart in the source

Kd [1]: 13 nM
Substance: Twinfilin (from UniProt Q91YR1)

Kd (G-actin [2]): 50 nM
Substance: Twinfilin C-ADF-H (from UniProt Q91YR1)

Kd (G-actin [3]): 700 nM
Substance: Twinfilin N-ADF-H (from UniProt Q91YR1)
